Assay results as given in patent US12281340B2, “Method of producing N-acyl-amino group-containing compound” (AJINOMOTO CO., INC., priority 2018, dated 2025).

What was measured:
Assay type in all cases: biochemical
Parameters in all cases: key: +: Detected; −: Not detected
[1] = Synthesis of N-caprinoylamino acid using purified acylamino acid synthetase, UPLC-MS detection; conditions: +ATP
Procedure: 2.0 mL of a reaction solution containing 50 mM Tris-HCl, 5 mM amino acid, 5 mM sodium caprate, 10 mM ATP, 10 mM MgCl2, 1 mM DTT, 50 μg of the purified enzyme, pH 8.0 was incubated at 25° C. for 24 hours. After completion of the reaction, 0.8 mL of a reaction stop solution (1% (v/v) phosphoric acid, 75% (v/v) methanol) was added, and the mixture was filtrated through a filter followed by being subjected to the UPLC-MS analysis to detect a signal of a molecular weight corresponding to an N-caprinoyl amino acid.
A UPLC-MS analysis condition is as follows.
(§1) Apparatus: ACQUITY UPLC (Waters)
• Column: ACQUITY UPLC BEH C18 1.7 2.1×100 mm Column (Waters) • Mobile phase A: 0.1% formic acid • Mobile phase B: acetonitrile Gradient
• Flow rate: 0.6 mL/min • Injection amount: 2 μL • Column temperature: 40° C. • Ionization method: ESI-negative
As a result of the UPLC-MS analysis, the signal of the molecular weight corresponding to the N-caprinoyl amino acid was confirmed in the reaction solution combining the enzyme and the amino acid shown in Table 3 below.

[2] = Synthesis of N-acylamino acids from various fatty acids using purified acylamino acid synthetase, UPLC-MS detection
Procedure: 0.1 mL of a reaction solution containing 50 mM Tris-HCl, 5 mM amino acid, 5 mM sodium fatty acid (3 mM of sodium palmitate or sodium stearate), 10 mM ATP, 10 mM MgCl2, 1 mM DTT, 200 μg/mL of the purified enzyme, pH 8.0 was shaken at 25° C. for 24 hours. When sodium palmitate or sodium stearate was used, methanol at a final concentration of 10% (v/v) was contained in the reaction solution. As the amino acid, L-Asp was used in AtGH3-6, OsGH3-8, AtGH3-5, AtGH3-12, L-Ile was used in AtJAR1, L-Ala was used in AtGH3-10, SsGH3, L-Glu was used in AtGH3-17, Gly was used in CfHP, L-Lys was used in PsIAAL, and L-Cys was used in PaHP. After completion of the reaction, 0.4 mL of the reaction stop solution (1% (v/v) phosphoric acid, 75% (v/v) methanol) was added, and the mixture was filtrated through the filter followed by being subjected to the UPLC-MS analysis to detect a signal of a molecular weight corresponding to the N-acylamino acid.
The condition for the UPLC-MS analysis is as follows.
as §1
Column: ACQUITY UPLC BEH C18 1.7 μm 2.1×100 mm Column (Waters), mobile phase A: 0.1% formic acid; mobile phase B: acetonitrile
• Flow rate: 0.6 mL/minute • Injection amount: 2 μL • Column temperature: 40° C. • Ionization method: ESI-negative
As a result of the UPLC-MS analysis, the signal of the molecular weight corresponding to the appropriate N-acylamino acid was confirmed in the reaction solution containing the enzyme in combination with sodium fatty acid shown in Table 7 below.

[3] = Synthesis of N-caprinoyl-amino acid derivative, N-caprinoyl-D-amino acid and N-caprinoyl-peptide using purified acylamino acid synthetase, UPLC-MS detection; conditions: +ATP
Procedure: 0.2 mL of a reaction solution containing 50 mM Tris-HCl, 5 mM amino acid derivative or D-amino acid or peptide, 5 mM sodium caprate, 10 mM ATP, 10 mM MgCl2, 1 mM DTT, 50 μg/mL of the purified enzyme, pH 8.0 was incubated at 25° C. for 24 hours. After completion of the reaction, 0.8 mL of the reaction stop solution (1% (v/v) phosphoric acid, 75% (v/v) methanol) was added, and the mixture was filtrated through the filter followed by being subjected to the UPLC-MS analysis to detect a signal of a molecular weight corresponding to an N-caprinoyl-amino acid derivative, an N-caprinoyl-amino acid or an N-caprinoyl-peptide. A condition for the UPLC-MS analysis is as described in Example 2.
As a result of the UPLC-MS analysis, the signal of the molecular weight corresponding to the N-caprinoyl-amino acid derivative, or N-caprinoyl-amino acid, or N-caprinoyl-peptide was confirmed in the reaction solution containing the enzyme in combination with the amino acid derivative or the D-amino acid or the peptide shown in Table 4 below.

B1: AtGH3-10: GH3-10 from Arabidopsis thaliana, His-tagged (protein, listed as Arabidopsis thaliana)
chain: METVEAGHDDVIGWFEHVSENACKVQSETLRRILELNSGVEYLRKWLGTVDVEKMDDYTLETLFTSLVPIVSHADLDPYIQRIADGETSPLLTQEPITVLSLSSGTTEGRQKYVPFTRHSAQTTLQIFRLSAAYRSRFYPIREGGRILEFIYAGKEFKTLGGLTVGTATTHYYASEEFKTKQETTKSFTCSPQEVISGGDFGQCTYCHLLLGLHYSSQVEFVASAFSYTIVQAFSFFEEIWREICADIKEGNLSSRITLPKMRKAVLALIRPNPSLASHIEEICLELETNLGWFGLISKLWPNAKFISSIMTGSMLPYLNKLRHYAGGLPLVSADYGSTESWIGVNVDPHLPPEDVSFAVIPTFSYFEFIPLYRRQNQSDICIDGDFVEDKPVPLSQVKLGQEYELVLTTFTGLYRYRLGDVVEVTSFHKGTPKLSFIYRRKLILTINIDKNTEKDLQRVVDKASQLLSRSTRAEVVDFTSHADVIARPGHYVIYWEIRGEADDKALEECCREMDTAFVDYGYVVSRRMNSIGPLELRVVERGTFGKVAERCVGKCGGLNQFKTPRCTTNSVMLDILNDSTIKRFRSSAYD
modifications: His-tag
notes: GH3-10 from Arabidopsis thaliana, His-tagged
[1]; substrates GABA and sodium caprate
  signal of molecular weight corresponding to N-caprinoyl amino acid: +
[1]; substrates Gly and sodium caprate
  signal of molecular weight corresponding to N-caprinoyl amino acid: +
[1]; substrates L-Ala and sodium caprate
  signal of molecular weight corresponding to N-caprinoyl amino acid: +
[1]; substrates L-Arg and sodium caprate
  signal of molecular weight corresponding to N-caprinoyl amino acid: +
[1]; substrates L-Asn and sodium caprate
  signal of molecular weight corresponding to N-caprinoyl amino acid: +
[1]; substrates L-Asp and sodium caprate
  signal of molecular weight corresponding to N-caprinoyl amino acid: +
[1]; substrates L-Cys and sodium caprate
  signal of molecular weight corresponding to N-caprinoyl amino acid: −
[1]; substrates L-Gln and sodium caprate
  signal of molecular weight corresponding to N-caprinoyl amino acid: +
[1]; substrates L-Glu and sodium caprate
  signal of molecular weight corresponding to N-caprinoyl amino acid: −
[1]; substrates L-His and sodium caprate
  signal of molecular weight corresponding to N-caprinoyl amino acid: +
[1]; substrates L-Ile and sodium caprate
  signal of molecular weight corresponding to N-caprinoyl amino acid: +
[1]; substrates L-Leu and sodium caprate
  signal of molecular weight corresponding to N-caprinoyl amino acid: +
[1]; substrates L-Lys and sodium caprate
  signal of molecular weight corresponding to N-caprinoyl amino acid: +
[1]; substrates L-Met and sodium caprate
  signal of molecular weight corresponding to N-caprinoyl amino acid: +
[1]; substrates L-Phe and sodium caprate
  signal of molecular weight corresponding to N-caprinoyl amino acid: +
[1]; substrates L-Pro and sodium caprate
  signal of molecular weight corresponding to N-caprinoyl amino acid: +
[1]; substrates L-Ser and sodium caprate
  signal of molecular weight corresponding to N-caprinoyl amino acid: +
[1]; substrates L-Thr and sodium caprate
  signal of molecular weight corresponding to N-caprinoyl amino acid: +
[1]; substrates L-Trp and sodium caprate
  signal of molecular weight corresponding to N-caprinoyl amino acid: +
[1]; substrates L-Tyr and sodium caprate
  signal of molecular weight corresponding to N-caprinoyl amino acid: +
[1]; substrates L-Val and sodium caprate
  signal of molecular weight corresponding to N-caprinoyl amino acid: +
[1]; substrates β-Ala and sodium caprate
  signal of molecular weight corresponding to N-caprinoyl amino acid: +
[2]; substrates L-Ala and Capric acid
  signal of molecular weight corresponding to N-acylamino acid: +
[2]; substrates L-Ala and Caproic acid
  signal of molecular weight corresponding to N-acylamino acid: +
[2]; substrates L-Ala and Caprylic acid
  signal of molecular weight corresponding to N-acylamino acid: +
[2]; substrates L-Ala and Lauric acid
  signal of molecular weight corresponding to N-acylamino acid: +
[2]; substrates L-Ala and Linoleic acid
  signal of molecular weight corresponding to N-acylamino acid: −
[2]; substrates L-Ala and Palmitic acid
  signal of molecular weight corresponding to N-acylamino acid: −
[2]; substrates L-Ala and myristic acid
  signal of molecular weight corresponding to N-acylamino acid: +
[2]; substrates L-Lys and Capric acid
  signal of molecular weight corresponding to N-acylamino acid: +
[2]; substrates L-Lys and Caproic acid
  signal of molecular weight corresponding to N-acylamino acid: +
[2]; substrates L-Lys and Caprylic acid
  signal of molecular weight corresponding to N-acylamino acid: +
[2]; substrates L-Lys and Lauric acid
  signal of molecular weight corresponding to N-acylamino acid: +
[2]; substrates L-Lys and Linoleic acid
  signal of molecular weight corresponding to N-acylamino acid: −
[2]; substrates L-Lys and Palmitic acid
  signal of molecular weight corresponding to N-acylamino acid: +
[2]; substrates L-Lys and myristic acid
  signal of molecular weight corresponding to N-acylamino acid: +
[3]; substrates Carnosine and sodium caprate
  signal of molecular weight corresponding to N-caprinoyl compound: −
[3]; substrates D-Ala and sodium caprate
  signal of molecular weight corresponding to N-caprinoyl compound: +
[3]; substrates D-Asp and sodium caprate
  signal of molecular weight corresponding to N-caprinoyl compound: +
[3]; substrates D-Cys and sodium caprate
  signal of molecular weight corresponding to N-caprinoyl compound: +
[3]; substrates D-Glu and sodium caprate
  signal of molecular weight corresponding to N-caprinoyl compound: +
[3]; substrates D-Ile and sodium caprate
  signal of molecular weight corresponding to N-caprinoyl compound: −
[3]; substrates D-Lys and sodium caprate
  signal of molecular weight corresponding to N-caprinoyl compound: −
[3]; substrates L-Asp-L-Phe and sodium caprate
  signal of molecular weight corresponding to N-caprinoyl compound: −
[3]; substrates L-Gly-L-Gly and sodium caprate
  signal of molecular weight corresponding to N-caprinoyl compound: +
[3]; substrates Sarcosine and sodium caprate
  signal of molecular weight corresponding to N-caprinoyl compound: −
[3]; substrates Taurine and sodium caprate
  signal of molecular weight corresponding to N-caprinoyl compound: +
